Assay: soluble fraction after stress (log2 fold change); higher = more stays soluble; pooled small domains, quantitative proteomics
Conditions: stress: 50 degC
How it was run: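 Each library was heated to 50°C as a stress step. The libraries, made up of small protein domains, were pooled and analysed at high throughput by quantitative proteomics. The reported value is the base-two logarithm of the fold change in each protein's soluble amount after stress, taken as a measure of aggregation propensity. The higher the value, the more protein stays in solution.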

Compared with “HMNSTRAPYLLDFEEDAAIREARRAGLVPRIARQPSGEPVGRVILQSHDYDYPMKRGDTILITISSG”, “HMSKKMLASIFDTISGIGKKRLKKIWDNYTSLNELKDDSLENIYAKTQIPINLITKIKEKLE” is higher in “soluble fraction (log2)” value: -0.737 for the first, -0.37 for the second.

Compared with “HMTDFDWSLFTQQLKRFNLFLSYDDREKLQTFQTLYGLNELDLAEYVAKASAGEKNGLNFNYLRQLINKEK”, “HMAENMNAALRVSSLINQIGTVNAKAKDRIESARKAYDALSEAQKAYVANLTTLETAETSLSKL” is higher in “soluble fraction (log2)” value: -0.465 for the first, 0.179 for the second.

Compared with “HMDDIHTFVYETETPFDPQKLDRYIGSLTAVYGQDMLRYKGILYFAGVDRRVVFQGVHMLAV”, “HMFGSKDVKRAIEDYAAAMSSQPRALSAPQRKVLIRHLATSGLLQLRGAAKIVADELGISRASVYNALKV” is lower in “soluble fraction (log2)” value: -0.0916 for the first, -0.436 for the second.

Compared with “HMGESFEELAREISDDTGSKTEGGETGLFPRGVMAPQFEEAAFLLKVGDISEPIRTKFGYHIIKLKEIKP”, “HMFQEGLVAPPAYTRPESFRGWEVPEILRSGNFPAIAKWQHEESLRLTRERRPAMLEAYERRT” is higher in “soluble fraction (log2)” value: -0.156 for the first, 0.121 for the second.

First: HMFINITAITGNNYNTPDAARNALPNTYNKKIGLVFTYRDLTNRYRVYLYNSETSNYIPLDSYM
Second: HMFTLDDLQATYDIFERAEQNSDAMLAFQKVITAEGLDFDLTSPQGIVDFFKGAAPTEIYDLYEAS
The “soluble fraction (log2)” value of the first is lower: -3.39 for the first, -0.403 for the second.

Compared with “HMIMGTITKRTNPSGAIVYRAQIRIKKAGYPDFSESRTFSKKAMAVEWLKLREAELEMHPELLFR”, “HMDISPAAKQRLALIQPLLEKNAEAITDRKLRNAVAKDIANNQNTTVRRVLRLYYRYLATGQVM” is higher in “soluble fraction (log2)” value: -1.34 for the first, 0.0392 for the second.

Compared with “HMHVYSYPAAVKIKNAVGREMMVTLLGRSGTHVQFARQDGEEFVYPISSLDLAAQTLISKYPNDGIKN”, “HMNALVAKYKQGVTEEQQQGQGIIIIKRVVVRDQEAWVYEKKIFDWGGVSYFRDKQRITASTFNQETAL” is lower in “soluble fraction (log2)” value: -0.444 for the first, -2.86 for the second.

“HMFIKVEVPDLTGMTLTEVRKALEEKNLKMGDIRPAGQTSLVAKVINQSPQAKMVVDEYSEVSIQFEE” and “HMLAGVDTLADRELEVFQMLGRGKSTKEIAQVLNLGESTVETYRARIKEKLQLRSAAELYLRAGQWVRDHG” are within 0.2 log units of each other in “soluble fraction (log2)” value: -0.217 for the first, -0.184 for the second.

“HMAPDGIEDKEGWLKVLPMITNLSIQMQNLQARGMDYEHIRNLLHETLLRYDDRIDSNLFIPNV” and “HMADEIMYPVQVNGKVRAEIFVAADQSKNKELVLEMAKSEERVQKYLEEGNLIKEIFVPGRIVNLVI” are within 0.2 log units of each other in “soluble fraction (log2)” value: 4.47e-05 for the first, 0.0273 for the second.

“HMRETELPVTIISAGRILAENLHLAGRDGGWLEAELKRRSLTAEQVLLLTVDAAGTVYLVRKEDL” and “HMVSRAFEEETVKRAESGNQEAALFALELAIREIEHSYEKSKIIDYFVSKVRLFLDNGVSLERALGIH” are within 0.2 log units of each other in “soluble fraction (log2)” value: -0.0641 for the first, 0.0637 for the second.

Going from “HMRAERVQITDPYIELHTGPGRGFPIFFVAPREQWISIELRHTDWFKVRAVGGQVGWVQRKQLEST” to “HMNQADNFNSLTKREKDVLLLVTQGESNKSIADKLVLSEVTVKSHLNSIFKKLNVTNRTQAVLVAMQMNLV”, the “soluble fraction (log2)” value rises from -0.455 to 0.03.

First: HMKTLPADPTVKNFSYTVVDGEIYYRENSIMTQIELSDNAKGRVAGMVELRQIVNELIDQQLND
Second: HMDKSHYEELGVSRTATHAEIRRAYRHLMRTLHPDSNDGRVDAVRITKVNEAWNVLSQSSSRNAYDKSQV
The “soluble fraction (log2)” value of the first is lower: -0.896 for the first, -0.38 for the second.

“HMAPSLSEYAYEEIKHAIERGVYPPGAKLITQEIADRLGISRTPVVAAVNRLTAEGYADAVPQHGIFVK” and “HMSDDSYLVALAEAYKNATSWDIRRQVLSIMTGVSSYKEISRYIPGLTQYRLSISNLHRLQYGRAAPVP” are within 0.2 log units of each other in “soluble fraction (log2)” value: 0.0573 for the first, 0.0583 for the second.

First: HMAEPIAAGKYTVSTSGSVLNMRVSPDADSQVLEKIPNGTIVEVTKSVLGWAYVTYNSAQGWVSSAYLV
Second: HMNIFAHQIGKLRTERHLSQTDVAKRLYVSRQAVSKWENGDAEPSLDNLIALAKLFNVSLDNLITGQ
The “soluble fraction (log2)” value of the first is higher: 0.15 for the first, -0.49 for the second.

First: HMSGTESMIEGRGEARTAIDGEGKVFFQGEYWTAQSDQFIPQGAKVRIKKVEGLNLIVEEIK
Second: HMAPVLTRREHEVLHLLTDGLDNRTIARNLFISEATVKFHLHNIMGKFGVHRRAALVSTALRG
The “soluble fraction (log2)” value of the first is higher: 0.0805 for the first, -2.21 for the second.

“HMRTAELEVWDDDELNDVVKLIQNNHNINTLKLRFQENVSFSGLSLIAAVLTKQSIILEIEY” and “HMEPGEVQVDGLRFIAQPQERNDFEVALEQFRAGNFAAARKSFAAFINTYKQSGYLPSARFW” are within 0.2 log units of each other in “soluble fraction (log2)” value: 0.0488 for the first, -0.0516 for the second.

First: HMEAMITEVKRINYGLISDISKSLDPFKSEGGHIIVDKRTNTFILTDLRANIEKMLWSIEIMD
Second: HMDEETVALQKAIHSLPPKQQAVFNMRYYDEMSFREIADANETTESSAKANYHFAKAKIIEQMKR
The “soluble fraction (log2)” value of the first is lower: -0.111 for the first, 0.101 for the second.

Going from “HMNADAPWSPFSPGFTGPMNRPVIGLVTKADLANPQRISLVESWLVQAGAQKVFVTSALENTGVDEMFIFL” to “HMKSISMANGNVQLRINGVLASSLEVAALSPEDIKRVEYHDNPGLRYGEGIDIVLDYITIKRT”, the “soluble fraction (log2)” value falls from -0.124 to -0.384.

“HMVDLANIDPIASSIKLNGAEADASFNTLEDRRVSVSGSFEENKNYTMEYTFKDYAGGSVTGTLDFKTLA” and “HMAAEGARNNSLFNSLRERALEVSSHNELEQIAFKMNETNIPPLRASEVISVVNSVWKNRISNQIIP” are within 0.2 log units of each other in “soluble fraction (log2)” value: 0.137 for the first, 0.155 for the second.

— the domain aggregation screens of Martell et al. (2025)
